Values of other authors in article PMC10215522.

Target: TFPI2 (Homo sapiens) (UniProt P48307)
UniProt P48307, sequence (P48307 23-235): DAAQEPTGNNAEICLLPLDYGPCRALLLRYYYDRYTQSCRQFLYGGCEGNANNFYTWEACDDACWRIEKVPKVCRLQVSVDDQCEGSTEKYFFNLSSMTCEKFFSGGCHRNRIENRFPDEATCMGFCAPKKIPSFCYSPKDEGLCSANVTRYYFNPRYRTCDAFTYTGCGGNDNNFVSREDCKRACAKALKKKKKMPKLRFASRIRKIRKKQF

Substance: gC1qR (from UniProt Q07021)
- Kd: 70 nM
